Values belong to the binder of their own block, whether it stands above or below them.
Experiments:
[1] = molecular target: Mutant Ang2 Q418 (알라닌 치환), FLAG-tagged (human) (UniProt O15123); assay: ELISA, coated antibody (1000 nM), 250 ng FLAG-tagged mutant Ang2, anti-FLAG-HRP, OD450
[2] = molecular target: Mutant Ang2 N421 (알라닌 치환), FLAG-tagged (human) (UniProt O15123); assay: as above
[3] = molecular target: Mutant Ang2 K468 (알라닌 치환), FLAG-tagged (human) (UniProt O15123); assay: as above
[4] = molecular target: Mutant Ang2 P419 (알라닌 치환), FLAG-tagged (human) (UniProt O15123); assay: as above
[5] = molecular target: Mutant Ang2 S417 (알라닌 치환), FLAG-tagged (human) (UniProt O15123); assay: as above
[6] = molecular target: Mutant Ang2 F469 (알라닌 치환), FLAG-tagged (human) (UniProt O15123); assay: as above
[7] = molecular target: Mutant Ang2 A449 (알라닌 치환), FLAG-tagged (human) (UniProt O15123); assay: as above
[8] = molecular target: Mutant Ang2 N467 (알라닌 치환), FLAG-tagged (human) (UniProt O15123); assay: as above
[9] = molecular target: Mutant Ang2 D448 (알라닌 치환), FLAG-tagged (human) (UniProt O15123); assay: as above
[10] = molecular target: Mutant Ang2 P452 (알라닌 치환), FLAG-tagged (human) (UniProt O15123); assay: as above
[11] = molecular target: Mutant Ang2 I434 (알라닌 치환), FLAG-tagged (human) (UniProt O15123); assay: as above
[12] = molecular target: Mutant Ang2 Y460 (알라닌 치환), FLAG-tagged (human) (UniProt O15123); assay: as above
[13] = molecular target: T1, 재조합 hAng-2 (C-His, R&D Systems) (human, UniProt O15123 19-496); assay: SPR, BIAcore T100; hAng-2 (C-His) captured on an anti-His CM5 chip, antibody flowed from 100 nM in 2-fold dilutions
T1 construct: Bought protein; also called 인간 Ang-2 단백질; not shown: C-terminal His tag
T1 sequence: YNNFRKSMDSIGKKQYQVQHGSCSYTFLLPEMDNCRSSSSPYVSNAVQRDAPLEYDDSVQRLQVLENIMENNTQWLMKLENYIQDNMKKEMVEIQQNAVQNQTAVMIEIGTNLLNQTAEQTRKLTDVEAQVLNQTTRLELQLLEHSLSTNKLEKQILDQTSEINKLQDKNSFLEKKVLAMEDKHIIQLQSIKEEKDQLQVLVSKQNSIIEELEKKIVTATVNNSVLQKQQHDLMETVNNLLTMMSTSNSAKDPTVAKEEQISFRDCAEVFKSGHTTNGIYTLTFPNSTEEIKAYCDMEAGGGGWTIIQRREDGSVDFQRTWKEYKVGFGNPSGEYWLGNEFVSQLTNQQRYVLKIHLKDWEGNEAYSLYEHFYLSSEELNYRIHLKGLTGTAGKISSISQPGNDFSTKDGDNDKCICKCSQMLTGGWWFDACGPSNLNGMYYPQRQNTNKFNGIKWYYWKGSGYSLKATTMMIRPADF

hTie2-Fc (R&D Systems) = molecular target: T2, hTie2-Fc (R&D Systems) (human, UniProt Q02763 23-745); assay: Complex ELISA: coated Tie2-Fc (4 ug/ml), 0.25 ug/ml Ang2 and 2 ug/ml 10D6, anti-mouse IgG-HRP, OD450
T2 construct: Bought fusion protein; neither the Tie2 range nor the linker is stated; also called hTie-2/Fc 융합 단백질; not shown: Fc of human IgG1
T2 sequence (Q02763 23-745 limits assumed): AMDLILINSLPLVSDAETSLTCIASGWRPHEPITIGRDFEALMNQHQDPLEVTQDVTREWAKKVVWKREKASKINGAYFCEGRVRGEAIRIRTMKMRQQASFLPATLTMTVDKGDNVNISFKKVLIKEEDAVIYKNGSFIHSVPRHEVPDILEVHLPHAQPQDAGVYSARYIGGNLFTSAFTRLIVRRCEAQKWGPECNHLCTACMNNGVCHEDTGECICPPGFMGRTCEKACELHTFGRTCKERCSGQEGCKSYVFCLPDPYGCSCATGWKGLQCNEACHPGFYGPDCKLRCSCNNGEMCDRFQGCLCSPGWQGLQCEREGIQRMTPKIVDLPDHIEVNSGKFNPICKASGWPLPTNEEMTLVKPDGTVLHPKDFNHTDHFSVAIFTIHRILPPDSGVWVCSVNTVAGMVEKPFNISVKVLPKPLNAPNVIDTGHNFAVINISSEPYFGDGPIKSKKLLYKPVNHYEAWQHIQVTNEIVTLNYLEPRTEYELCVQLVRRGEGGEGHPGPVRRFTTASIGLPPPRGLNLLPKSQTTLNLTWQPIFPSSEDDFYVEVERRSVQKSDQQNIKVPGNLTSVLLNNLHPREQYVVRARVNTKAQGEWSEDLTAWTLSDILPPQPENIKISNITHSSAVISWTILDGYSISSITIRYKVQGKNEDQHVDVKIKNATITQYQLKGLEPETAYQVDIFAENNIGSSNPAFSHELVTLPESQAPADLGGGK

binding to Mutant Ang2 relative to native Ang2 (%) [1]: 38.9%
binding to Mutant Ang2 relative to native Ang2 (%) [2]: 109%
binding to Mutant Ang2 relative to native Ang2 (%) [3]: 110%
binding to Mutant Ang2 relative to native Ang2 (%) [4]: 41.1%
binding to Mutant Ang2 relative to native Ang2 (%) [5]: 101%
binding to Mutant Ang2 relative to native Ang2 (%) [6]: 109%
binding to Mutant Ang2 relative to native Ang2 (%) [7]: 97.9%
binding to Mutant Ang2 relative to native Ang2 (%) [8]: 107%
binding to Mutant Ang2 relative to native Ang2 (%) [9]: 105%
binding to Mutant Ang2 relative to native Ang2 (%) [10]: 102%
binding to Mutant Ang2 relative to native Ang2 (%) [11]: 109%
binding to Mutant Ang2 relative to native Ang2 (%) [12]: 103%
Kd [13]: 8 nM
B1: SAIT-ANG2-AB-m10D6 (antibody, V domains shown)
VH: DVQLQESGPGLVKPSQSLSLTCTVTGYSITSDYAWNWIRQFPGNKLEWMGYINYSGNTDYNPSLKSRSSITRDTSKNQFFLQLNSVTTGDTATYYCARGNFEGAMDYWGQGTSVTVSS
VL: SIVMTQTPKFLLVSAGDRVTITCKASQSVSNDVAWYQQKPGQSPKLLIYYASNRYPGVPDRFTGSGYGTDFTFTISTVQAEDLAVYFCQQDYSSPWTFGGGTKLEIK
notes: Mouse monoclonal antibody from a hybridoma (KCLRF-BP-00295), purified on protein G; also called 10D6 항체; 10D6 anti-Ang2 항체

binding result (hTie2-Fc (R&D Systems)): binds
B2: Ang2 단백질(R&D systems) (ligand)
chain: T1 sequence

Reference: patent publication KR20200144536A (dated 2020)
